Data on 1 molecule can be found in patent publication US20260284221 (published 2026).

Holding throughout (assay): BLI pH 7.4
One test has as its target T1, Mouse Trop2 (mouse, UniProt Q8BGV3).
T1 chain: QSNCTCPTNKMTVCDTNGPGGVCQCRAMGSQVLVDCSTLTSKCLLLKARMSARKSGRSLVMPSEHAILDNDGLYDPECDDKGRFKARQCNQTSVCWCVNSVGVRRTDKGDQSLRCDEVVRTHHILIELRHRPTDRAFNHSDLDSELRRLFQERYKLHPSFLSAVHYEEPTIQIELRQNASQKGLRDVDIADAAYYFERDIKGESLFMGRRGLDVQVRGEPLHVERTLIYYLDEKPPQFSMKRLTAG

In a further test the target is T2, Human Trop2 (human, UniProt P09758).
T2 chain: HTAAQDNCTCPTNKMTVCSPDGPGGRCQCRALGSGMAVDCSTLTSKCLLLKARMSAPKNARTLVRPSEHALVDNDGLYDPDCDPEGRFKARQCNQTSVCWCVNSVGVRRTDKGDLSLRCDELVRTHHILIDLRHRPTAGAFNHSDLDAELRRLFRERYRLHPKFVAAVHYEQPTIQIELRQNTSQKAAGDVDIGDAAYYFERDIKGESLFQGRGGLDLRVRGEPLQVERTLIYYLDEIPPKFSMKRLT

In the next test the target is T3, Rat Trop2 (rat, UniProt Q6P9Z6).
T3 chain: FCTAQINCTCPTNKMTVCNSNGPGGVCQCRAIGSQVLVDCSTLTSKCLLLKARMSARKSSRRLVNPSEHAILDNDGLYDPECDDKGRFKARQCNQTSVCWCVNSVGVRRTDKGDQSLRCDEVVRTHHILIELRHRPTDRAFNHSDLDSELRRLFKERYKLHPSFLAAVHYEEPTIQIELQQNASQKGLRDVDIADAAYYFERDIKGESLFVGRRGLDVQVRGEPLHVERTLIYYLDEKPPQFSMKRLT

Another test addresses T4, Rhesus macaque Trop2 (rhesus macaque).
T4 chain: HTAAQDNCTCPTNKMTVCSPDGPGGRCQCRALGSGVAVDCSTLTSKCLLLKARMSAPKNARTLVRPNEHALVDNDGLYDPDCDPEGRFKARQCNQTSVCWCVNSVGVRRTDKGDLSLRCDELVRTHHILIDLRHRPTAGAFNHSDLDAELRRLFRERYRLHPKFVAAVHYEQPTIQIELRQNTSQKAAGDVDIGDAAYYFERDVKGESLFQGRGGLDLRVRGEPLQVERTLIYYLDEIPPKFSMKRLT

A value given as a limit tells only on which side of the number the result lay.

B1: L2-conjugated anti-Trop2 antibody (IB12) (antibody, V domains shown)
VH: EVQLVESGGGLVQPGGSLRLSCAASGFTFNNYAMSWVRQAPGKGLEWVSTISSDGTYTYYADSVKGRFTISRDNSKNTLYLQMNSLRAEDTAVYYCARHPPSYYYAFDYWGQGTTLTVSS
VL: EIVLTQSPGTLSLSPGERATLSCRASESVDSYGNSFIHWYQQKPGQAPRLLIYLASNLESGIPDRFSGSGSGTDFTLTISRLEPEDFAVYYCQQNNEDLWTFGGGTKLEIK
modifications: conjugated with L2 linker; heavy constant SEQ2, light constant SEQ4
For the molecule B1, the binding result with Mouse Trop2 and in the test with Rat Trop2 was “no binding” in each case. Further, the Kd was 22.6 nM in the test with Human Trop2 and below 0.001 nM with Rhesus macaque Trop2.

Broadly, the Kd is a measure of binding affinity in units of concentration. Read a high Kd as weaker binding.
